Measurements: patent US20210284747A1 (CAPELLA BIOSCIENCE, published 2021)

T1: Human LIGHT-32L, on II23 cells (human, UniProt O43557 1-240)
T1 construct: also called II23-LIGHT 32L
T1 chain: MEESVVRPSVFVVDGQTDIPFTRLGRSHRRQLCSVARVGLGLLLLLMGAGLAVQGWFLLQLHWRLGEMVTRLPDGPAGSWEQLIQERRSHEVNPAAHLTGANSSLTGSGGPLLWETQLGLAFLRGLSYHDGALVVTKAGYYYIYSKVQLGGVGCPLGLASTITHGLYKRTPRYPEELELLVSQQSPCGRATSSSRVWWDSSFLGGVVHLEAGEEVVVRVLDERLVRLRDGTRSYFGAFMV


Assays:
[1] = biological target: Full length LIGHT R189A on HEK293FF cells (Homo sapiens (Human), UniProt O43557 1-240); assay: flow cytometry, HEK293FF, mAb at EC50
Full length LIGHT R189A on HEK293FF cells, sequence (O43557 whole entry R189A): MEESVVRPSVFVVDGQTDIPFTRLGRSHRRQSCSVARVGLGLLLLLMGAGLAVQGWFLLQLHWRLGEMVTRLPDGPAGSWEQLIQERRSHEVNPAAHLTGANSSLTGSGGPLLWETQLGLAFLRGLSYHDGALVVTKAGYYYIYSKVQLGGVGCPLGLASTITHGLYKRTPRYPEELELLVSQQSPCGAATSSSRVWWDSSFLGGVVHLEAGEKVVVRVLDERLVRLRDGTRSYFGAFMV
Procedure: (§1) The day of transfection the cells were seeded in a 24-well plate at 0.6×10⁶ cells/well. Lipofectamine 2000 (ThermoFisher scientific), 3 ul, was mixed with 50 μl OptiMEM medium (GIBCO) and then added to 50 μl Opti-MEM medium containing 3 ug plasmid DNA and incubated for 20 min at RT to form DNA-Lipofectamine 2000 complexes which were then added to the HEK293FF cells and incubated at 37° C., 5% CO₂ for 24 hours. For each construct, in duplicate, 0.60×10⁶ cells/well were used in a 96 well round bottom plate. Cells were centrifuged for 3 minutes at 300×g at 4° C., the supernatant discarded and the cells washed with 150 μl FACS buffer (0.5% FBS in phosphate buffered saline). This process was repeated 3 times. […] The wells were washed 3 times as above and 50 μl/well of goat anti-human IgG FITC (1:1500 dilution in FACS buffer, SIGMA F9512-2ML) or goat anti-mouse APC (1/500 dilution in FACS buffer, BDBioscience 550826), as appropriate, was added to the wells and incubated for 30 min at 4° C. protected from the light, with shaking. The cells were then washed as above, resuspended in 100 μl of FACS buffer and binding of the antibodies to the constructs was measured using flow cytometry and a total of 10,000 cells were acquired for each sample. Controls of buffer and secondary antibody only as well as HEK293FF non transfected cells were also used.

[2] = biological target: Full length LIGHT G188A on HEK293FF cells (Homo sapiens (Human), UniProt O43557 1-240); assay: flow cytometry, HEK293FF, mAb at EC50
Full length LIGHT G188A on HEK293FF cells, sequence (O43557 whole entry G188A): as the sequence (O43557 whole entry R189A) above, with G188A, A189R counted along it
Procedure: as §1

[3] = biological target: Full length LIGHT V196A on HEK293FF cells (Homo sapiens (Human), UniProt O43557 1-240); assay: flow cytometry, HEK293FF, mAb at EC50
Procedure: as §1

[4] = biological target: Full length LIGHT S194A on HEK293FF cells (Homo sapiens (Human), UniProt O43557 1-240); assay: flow cytometry, HEK293FF, mAb at EC50
Full length LIGHT S194A on HEK293FF cells, sequence (O43557 whole entry S194A): as the sequence (O43557 whole entry R189A) above, with A189R, S194A counted along it
Procedure: as §1

[5] = biological target: Full length LIGHT R195A on HEK293FF cells (Homo sapiens (Human), UniProt O43557 1-240); assay: flow cytometry, HEK293FF, mAb at EC50
Full length LIGHT R195A on HEK293FF cells, sequence (O43557 whole entry R195A): as the sequence (O43557 whole entry R189A) above, with A189R, R195A counted along it
Procedure: as §1

[6] = biological target: Full length LIGHT T191A on HEK293FF cells (Homo sapiens (Human), UniProt O43557 1-240); assay: flow cytometry, HEK293FF, mAb at EC50
Full length LIGHT T191A on HEK293FF cells, sequence (O43557 whole entry T191A): as the sequence (O43557 whole entry R189A) above, with A189R, T191A counted along it
Procedure: as §1

[7] = biological target: Full length LIGHT A190S on HEK293FF cells (Homo sapiens (Human), UniProt O43557 1-240); assay: flow cytometry, HEK293FF, mAb at EC50
Full length LIGHT A190S on HEK293FF cells, sequence (O43557 whole entry A190S): as the sequence (O43557 whole entry R189A) above, with A189R, A190S counted along it
Procedure: as §1

[8] = biological target: Full length LIGHT W198A on HEK293FF cells (Homo sapiens (Human), UniProt O43557 1-240); assay: flow cytometry, HEK293FF, mAb at EC50
Full length LIGHT W198A on HEK293FF cells, sequence (O43557 whole entry W198A): as the sequence (O43557 whole entry R189A) above, with A189R, W198A counted along it
Procedure: as §1

[9] = biological target: Full length LIGHT S193A on HEK293FF cells (Homo sapiens (Human), UniProt O43557 1-240); assay: flow cytometry, HEK293FF, mAb at EC50
Procedure: as §1

[10] = biological target: Full length LIGHT W197A on HEK293FF cells (Homo sapiens (Human), UniProt O43557 1-240); assay: flow cytometry, HEK293FF, mAb at EC50
Full length LIGHT W197A on HEK293FF cells, sequence (O43557 whole entry W197A): as the sequence (O43557 whole entry R189A) above, with A189R, W197A counted along it
Procedure: as §1

[11] = biological target: Full length LIGHT S192A on HEK293FF cells (Homo sapiens (Human), UniProt O43557 1-240); assay: flow cytometry, HEK293FF, mAb at EC50
Full length LIGHT S192A on HEK293FF cells, sequence (O43557 whole entry S192A): as the sequence (O43557 whole entry R189A) above, with A189R, S192A counted along it
Procedure: as §1

[12] = biological target: LIGHT without residues 81-84, stably expressed on EL4 cells (EL4-NC-LIGHT); assay: cell-based or functional assay
[13] = biological target: T1, Human LIGHT-32L, on II23 cells; assay: flow cytometry on II23-LIGHT 32L cells, 4 ug mAb in 100 uL, goat anti-human Fc gamma-PE; signal as % of the commercial anti-LIGHT-PE
Procedure: The cells were suspended at 1×10⁷ cells/ml and 100 uL aliquots were placed into wells of a 96-well plate, the cells spun down and washed in FACS buffer at 1800 rpm for 2 min. The cells were blocked with 1:100 dilution of anti-CD16/CD32 (eBioscience, San Diego, USA) in FACS buffer for 20 min at room temperature and then washed 1× in FACS buffer at 1800 rpm for 2 min. The cells were then resuspended in 100 uL FACS buffer+4 ug anti-membrane LIGHT mAbs or anti-LIGHT-PE (eBioscience, lot: E01621-1632) for 30 min in the dark at room temperature, followed by washing 1× in FACS buffer at 1800 rpm for 2 min and then resuspended in 100 uL FACS buffer plus 1:100 goat anti-human Fcγ-PE secondary antibody or no secondary antibody at 4° C. in the dark for 30 min. The cells were again washed 1× in FACS buffer at 1800 rpm for 2 min and fixed in 200 uL 2% paraformaldehyde overnight at 4° C. and read on a flow cytometer.

Row | Binder | % of WT binding [1] [%] | % of WT binding [2] [%] | % of WT binding [3] [%] | % of WT binding [4] [%] | % of WT binding [5] [%] | % of WT binding [6] [%] | % of WT binding [7] [%] | % of WT binding [8] [%] | % of WT binding [9] [%] | % of WT binding [10] [%] | % of WT binding [11] [%] | IC50, inhibition of IL-8 secretion, HT-29 + EL4-NC-LIGHT cells [12] [nM] | binding result [13]
1 | 3B04 chimeric IgG4 mAb (antibody, V domains shown, also called Parental 3B04) VH: QVQLQQPGAELVRPGASVTLSCKASGYTFTDYEMHWVKQTPVHGLEWIGEIDPETGDTAYSQKFKGKATLTADKSSSTAYMEFRSLTSEDSAVYYCSRETDYFFDYWGQGTTLTVSS VL: DIQMTQTPASLSASVGETVTITCGASENIYGALNWYQRKQGKSPQLLIYGATNLADGMSSRFSGSGSGRQYSLKISSLHPDDFATYYCQNVLTTPWTFGGGTKLEIK | 0 | 6 | 80 | 0 | 1 | 2 | 68 | 81 | 0 | 0 | 88 | 0.05 | binds
2 | 3D12 chimeric IgG4 mAb (antibody, V domains shown, Chimeric human IgG4 (S-to-P, L-to-E) with human CL, as m1; also called Parental 3D12; 03D12) VH: QVQLQQPGAELVRPGASVTLSCKASDYTFTDSEIHWVKQTPVHGLEWIGEIDPETGGTAYNQKFKGKATLTADKSSSTAYMELRSLTSEDSAVYYCSRETDYFFDYWGQGTTLTVSS VL: DIQMTQSPASLSASVGETVTITCGASENIYGALNWYQRKQGKSPQLLIYGATNLADGMSSRFSGSGSGRQYSLKISSLHPDDVATYYCQNVLSTPWTFGGGTKLEIK | 1 | 20 | 70 | 2 | 25 | 8 | 82 | 83 | 0 | 1 | 84 | 0.32 | binds
